For this assay, the target named is T1, TGF-β1 R1 (mouse, UniProt Q64729 30-503).
T1 construct: Endogenous protein in total cell extracts; It is seen only as part of the 102 Kda band on the anti-Smad7 Western blot; also called TGF-β1 receptor R1
T1 sequence (looked up): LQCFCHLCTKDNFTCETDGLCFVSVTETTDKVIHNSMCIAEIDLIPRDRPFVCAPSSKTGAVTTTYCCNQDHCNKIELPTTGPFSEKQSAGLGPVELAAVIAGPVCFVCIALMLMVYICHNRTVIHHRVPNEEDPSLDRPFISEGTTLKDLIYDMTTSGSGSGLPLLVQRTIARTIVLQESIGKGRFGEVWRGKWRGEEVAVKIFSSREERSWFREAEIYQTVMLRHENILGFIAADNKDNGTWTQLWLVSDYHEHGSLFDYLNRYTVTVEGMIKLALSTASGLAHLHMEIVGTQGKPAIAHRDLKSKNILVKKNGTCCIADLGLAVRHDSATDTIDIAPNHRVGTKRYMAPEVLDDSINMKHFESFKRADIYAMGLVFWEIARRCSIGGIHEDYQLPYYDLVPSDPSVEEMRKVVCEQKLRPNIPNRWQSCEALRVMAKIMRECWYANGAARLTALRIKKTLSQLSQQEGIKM
Nature of the assay: Western blot of LPMC total protein extracts with anti-Smad7 antibody (FIG. 3). Background: A western blot detects proteins with antibodies after separation by electrophoresis.

The values below come from US20200325480A1 (NOGRA PHARMA, published 2020).

B1: Smad7 (other, mouse, UniProt O35253 1-426, looked up)
chain: MFRTKRSALVRRLWRSRAPGGEDEEEGVGGGGGGGELRGEGATDGRAYGAGGGGAGRAGCCLGKAVRGAKGHHHPHPPTSGAGAAGGAEADLKALTHSVLKKLKERQLELLLQAVESRGGTRTACLLLPGRLDCRLGPGAPASAQPAQPPSSYSLPLLLCKVFRWPDLRHSSEVKRLCCCESYGKINPELVCCNPHHLSRLCELESPPPPYSRYPMDFLKPTAGCPDAVPSSAETGGTNYLAPGGLSDSQLLLEPGDRSHWCVVAYWEEKTRVGRLYCVQEPSLDIFYDLPQGNGFCLGQLNSDNKSQLVQKVRSKIGCGIQLTREVDGVWVYNRSSYPIFIKSATLDNPDSRTLLVHKVFPGFSIKAFDYEKAYSLQRPNDHEFMQQPWTGFTVQISFVKGWGQCYTRQFISSCPCWLEVIFNSR
notes: Endogenous protein in total cell extracts, detected by Western blot with a rabbit anti-human Smad7 antibody; also called free Smad7 (47 Kda band)
B1: the binding result is “binds”.
